Data as given in PMC3791462, “Role of the C-terminal domain in the structure and function of tetrameric sodium channels” (Nature Communications, 2013).
Where a chain is given by its changes, count along the chain named. Names and notes keep the numbering of the source.

B1: NavMs-pore+CTD (wild-type pore with full-length C-terminal domain of the NavMs sodium channel from Magnetococcus marinus MC-1) (domain or fragment, UniProt A0L5S6 130-274, looked up)
chain: GVGSVAALLTVVFYIAAVMATNLYGATFPEWFGDLSKSLYTLFQVMTLESWSMGIVRPVMNVHPNAWVFFIPFIMLTTFTVLNLFIGIIVDAMAITKEQEEEAKTGHHQEPISQTLLHLGDRLDRIEKQLAQNNELLQRQQPQKK
notes: Plasmid pET15b; also called unlabelled wild-type construct; wild-type pore+CTD protein; source: E. coli C41(DE3), purified (HisTrap HP, thrombin, second HisTrap HP, size exclusion) in HEGA-10
B2: NavMs-pore+CTD R268C, PROXYL spin-labelled (domain or fragment, Magnetococcus marinus MC-1, UniProt A0L5S6 130-274, looked up)
chain: B1 chain with R139C
modifications: 3-(2-iodoacetamido)-PROXYL nitroxide spin label on cysteine 268
notes: source: E. coli C41(DE3), purified (HisTrap HP, thrombin, size exclusion), spin-labelled
B3: NavMs-pore+CTD A223C, PROXYL spin-labelled (domain or fragment, Magnetococcus marinus MC-1, UniProt A0L5S6 130-274, looked up)
chain: B1 chain with A94C
modifications: 3-(2-iodoacetamido)-PROXYL nitroxide spin label on cysteine 223
notes: as for B2
B4: NavMs-pore+CTD D250C, PROXYL spin-labelled (domain or fragment, Magnetococcus marinus MC-1, UniProt A0L5S6 130-274, looked up)
chain: B1 chain with D121C
modifications: 3-(2-iodoacetamido)-PROXYL nitroxide spin label on cysteine 250
notes: as for B2
B5: NavMs-pore+CTD A260C, PROXYL spin-labelled (domain or fragment, Magnetococcus marinus MC-1, UniProt A0L5S6 130-274, looked up)
chain: B1 chain with A131C
modifications: 3-(2-iodoacetamido)-PROXYL nitroxide spin label on cysteine 260
notes: as for B2
B6: NavMs-pore+CTD A221C, PROXYL spin-labelled (domain or fragment, Magnetococcus marinus MC-1, UniProt A0L5S6 130-274, looked up)
chain: B1 chain with A92C
modifications: 3-(2-iodoacetamido)-PROXYL nitroxide spin label on cysteine 221
notes: as for B2
B7: NavMs-pore+CTD A221C/D250C double mutant, PROXYL spin-labelled (domain or fragment, Magnetococcus marinus MC-1, UniProt A0L5S6 130-274, looked up)
chain: B1 chain with A92C, D121C
modifications: 3-(2-iodoacetamido)-PROXYL nitroxide spin labels on cysteines 221 and 250
notes: as for B2
B8: NavMs-pore+CTD I241C, PROXYL spin-labelled (domain or fragment, Magnetococcus marinus MC-1, UniProt A0L5S6 130-274, looked up)
chain: B1 chain with I112C
modifications: 3-(2-iodoacetamido)-PROXYL nitroxide spin label on cysteine 241
notes: as for B2
B9: NavMs-pore+CTD A232C, PROXYL spin-labelled (domain or fragment, Magnetococcus marinus MC-1, UniProt A0L5S6 130-274, looked up)
chain: B1 chain with A103C
modifications: 3-(2-iodoacetamido)-PROXYL nitroxide spin label on cysteine 232
notes: as for B2
B10: NavMs-pore+CTD K273C, PROXYL spin-labelled (domain or fragment, Magnetococcus marinus MC-1, UniProt A0L5S6 130-274, looked up)
chain: B1 chain with K144C
modifications: 3-(2-iodoacetamido)-PROXYL nitroxide spin label on cysteine 273
notes: as for B2

Target: the molecule itself
Test: SEC; Superdex 200 10/300 GL, buffer A (10 mM Tris-HCl pH 7.5, 100 mM NaCl, 0.52% HEGA-10); detergent-solubilised protein

| Protein | stoichiometry N |
| --- | --- |
| B1 | 4 |
| B2 | 4 |
| B3 | 4 |
| B4 | 4 |
| B5 | 4 |
| B6 | 4 |
| B7 | 4 |
| B8 | 4 |
| B9 | 4 |
| B10 | 4 |
